Experimental data: patent publication US20230035659A1, “Compositions and Methods for TTR Gene Editing and Treating ATTR Amyloidosis Comprising a Corticosteroid or Use Thereof” (Intellia Therapeutics, Inc., priority 2019, published 2023)
Strand notation (5' to 3'): a small letter for the sugar, then the base; units joined by * are phosphorothioate-linked, units joined directly phosphodiester-linked; [ ] holds rarer units or linkages, { } end groups; capitals alone tell only the bases. m = 2'-O-methyl; r = 2'-OH (RNA)

Test system: mouse TTR
Assay: Serum mouse TTR (ELISA) after LNP dosing of mice with murine TTR
Type: in vivo
Details: wild type CD-1 mice; LNP 45:44:9:2, N:P 6; 1, 0.3, 0.1, 0.03, 0.01 mg/kg
Method: Unless otherwise noted, CD-1 female mice, ranging from 6-10 weeks of age were used in each study. Animals were weighed and grouped according to body weight for preparing dosing solutions based on group average weight. LNPs were dosed via the lateral tail vein in a volume of 0.2 mL per animal (approximately 10 mL per kilogram body weight). […] Body weight was measured at twenty-four hours post-administration, and animals were euthanized at various time points by exsanguination via cardiac puncture under isoflourane anesthesia. Blood was collected into serum separator tubes or into tubes containing buffered sodium citrate for plasma as described herein. […]
Blood was collected and the serum was isolated as indicated. The total mouse TTR serum levels were determined using a Mouse Prealbumin (Transthyretin) ELISA Kit (Aviva Systems Biology, Cat. OKIA00111); rat TTR serum levels were measured using a rat specific ELISA kit (Aviva Systems Biology catalog number OKIA00159); human TTR serum levels were measured using a human specific ELISA kit (Aviva Systems Biology catalog number OKIA00081); each according to manufacture's protocol. […] The absorbance of the contents was measured on the Spectramax M5 plate reader with analysis using SoftmaxPro version 7.0 software. […]

B1: G000502: TTR Cyno specific sgRNA modified sequence, SEQ ID NO: 114; guide sequence of CR000689; cross homologous between mouse and cyno (nucleic acid)
guide: mA*mC*mA*rCrArArArUrArCrCrArGrUrCrCrArGrCrGrGrUrUrUrUrArGrAmGmCmUmAmGmAmAmAmUmAmGmCrArArGrUrUrArArArArUrArArGrGrCrUrArGrUrCrCrGrUrUrArUrCrAmAmCmUmUmGmAmAmAmAmAmGmUmGmGmCmAmCmCmGmAmGmUmCmGmGmUmGmCmU*mU*mU*mU
- serum mouse TTR levels, dose response: dose response
